Experimental data as given in publication doi:10.1101/2024.05.16.594476.
Where “and” joins values, the source holds several entries; their conditions need not be identical. Equal entries are not always repeated.

Tests used:
[1] = biological target: Mtb PhoP, phosphorylated with acetyl phosphate (AcP) (Mycobacterium tuberculosis) (UniProt P71814); assay: […]
[2] = biological target: Mtb PhoP, phosphorylated with acetyl phosphate (AcP) (Mycobacterium tuberculosis) (UniProt P71814); assay: […]; remark: listed apart in the source
[3] = biological target: Mtb PhoP, phosphorylated with acetyl phosphate (AcP) (Mycobacterium tuberculosis) (UniProt P71814); assay: cryo-EM structure

## Mtb PhoP, phosphorylated with acetyl phosphate (AcP) (from UniProt P71814 1-247) (natural protein)
[1]
  stoichiometry N: 6 and 4
[2]
  stoichiometry N: 2
[3]
  stoichiometry N: 2
